# Measured values reported in the supplement of paper PMC9170038.
# System: K4 kissing-loop RNA reporter
# Assay: apparent KD of K4 kissing-loop reporter; higher = weaker reporter binding
# Conditions: Eterna round: R107
# Experimental: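 RNA-MaP round R107: designed RNA switches with theophylline, tryptophan, arginine or FMN aptamers are transcribed on-chip within common flanks. They are titrated with a labelled K4 kissing-loop RNA reporter in RNA-MaP buffer (100 mM Tris pH 7.5, 80 mM KCl, 4 mM MgCl2), without ligand or with the indicated ligand. Median apparent KD per design.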
# [1] = input ligand: theophylline 20 uM
# [2] = input ligand: tryptophan 2.4 mM
# 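Note: bound reporter read as fluorescence of individual clusters on recovered sequencing chips by microscopy, with normalized cluster intensities fitted with a binding model.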
Sequence,apparent KD of K4 kissing-loop reporter (input ligand: FMN 200 uM) [nM],apparent KD of K4 kissing-loop reporter (input ligand: arginine 13.2 mM) [nM],apparent KD of K4 kissing-loop reporter (input ligand: none) [nM],apparent KD of K4 kissing-loop reporter [1] [nM],apparent KD of K4 kissing-loop reporter [2] [nM]
CAAACGGGUUGGCUUGGAGACUGCAGACGCAAGGAUAUCGCGAAGACGAGAAGGUGCGGGCCUGGUAGUGAUGUUACAGUUUGGU [theeternabot_sameState_KL_FMN_A_21],358,326,395,367,254
CAAAUAUGCGGUAGGUUCAAGCGCUGGGAAGGAGCGCAGAUGACUGCAGGUAGGUCGCCCAGUGAUGUUGGGCUUUCCACCUAUG [Esisusa],132,109,107,136,100
CACAAUUAAUUACAGUGAUGUUGUAAUCUGCGAGGACCGGUACGGCCGCCACUCGGGCUUGUAGGGCGCCCACAUUCUUAUACUA [theeternabot_sameState_KL_Trp_A_29],447,348,426,428,360
CACUUACGUAGUGAUGUUACGAUCUCUGAUACCAGACAACUCUAAGUCCCUUGGCAGCAGUCAUUUUGCUUAGUAUUUACUCAAA [JR_ExcTheophyA_Sub016],679,650,791,605,512
CACUUACGUAGUGAUGUUACGAUCUCUGAUACCAGACAACUCUAAGUCCCUUGGCAGCAGUCAUUUUGCUUCAAAUUUACUCAAA [JR_ExcTheophyA_Sub013],691,577,706,661,520
CACUUACGUAGUGAUGUUACGAUCUCUGAUACCAGACAACUCUAAGUCCCUUGGCAGCAGUCAUUUUGCUUUUAAUUUACUCAAA [JR_ExcTheophyA_Sub014],552,572,682,578,425
CAGAACUUGUAUACAGGGCAUGCCAGAGAUACCAGUCAAAUGGAAGGCCCUUGGCAGCUCAGGCGAGUGAUGUUCGCAGGCUGAC [Exclusion Theophylline A GF 19],140,122,116,131,133
CAGAACUUGUAUACAGGGUAUGUAAGAGAUACCAGUCAAAUUAAAGACCCUUGGCAGCUCAGGCGAGUGAUGUUCGCAGGCUAAC [Exclusion Theophylline A GF 18],103,118,115,116,99
CAGCAUCUGAGUGGUAGCCAUUGAGAGAUGCAGGAUAUCUGGAAACAGAGAAGGGCAGUGAGUGAUGUUCACGGCUGGCUUGGUU,154,132,179,133,110
CAUAGGAAACUAUGUUCCUCUCUUACUGAAGGAGCGCGUGAAAACGCAGGUAGGUCGCAGGAUUUGAGAGUGAUGUUCUCAUUAA [Ex Arginine A K4 15],160,260,254,278,171
CAUUACGGUCGCUUACCAAACCACUACUUCCGAGGACCGGUACGGCCGCCACUCGCCAGUGAUGUUGGCUCGGGCGGCCGAUUAU [Orrebeante],117,103,109,97.9,106
CCAAGGUGCUUCUGUUCAGUGAUGUUGGUACGAGGACCGGUACGGCCGCCACUCGCCGUACAAUCGCUAGUUAAUCAUUGGCAAG [theeternabot_exclusion_KL_Trp_A_40],667,408,660,441,256
CCACCUCCAGAAGGAUAUAGUGUAUCAGAUUCACUCGAGUGCCUUAAACUAAGGAGUGAUGUUCCGCUAGAAGGUCUCGUAGGCA [theeternabot_exclusion_KL_FMN_B_45],191,145,149,138,133
CCAUCGCUAUUCGAUACCAGCCAGGAGGUCUUUGGCCUCCUAUUGGAGUGAUGUUCCAUAGGCCCUUGGCAGCGAAUAGUGAUGG [Theophylline B K4 16],372,187,283,542,374
CCAUCGCUAUUCGAUACCAGUCAGGAGGUCUUUGGCCUCCUAUUGGAGUGAUGUUCCAUAGACCCUUGGCAGCGAAUAGUGAUGG [Theophylline B K4 15],822,255,834,613,510
CCCUCACGAGUGAUGUUCGUAGGGUACAGUCAGGAUAUCAUGCGGUUGAGAAGGGACAGAGAAGGCGGCGACGGGUUGCUUAUCU [Atenus],206,243,277,200,218
CCGAUACAUUAUUCUACGGCCGAGAGCGAUACCAGCCAAAUUUAUGGCCCUUGGCAGCGCAGAUGCAGUGAUGUUGCAUACAUAC [Same State Theophylline A GF 18],102,158,95.6,166,83.2
CCGAUGGGUACAGGAUAUGCCAGUGAUGUUGGUUUAGAUGGACCCAGAAGGAGACACCAGACGGAGGCAGAAGGGUAGCAAGGGA [Raarriis],140,108,106,100,105
CCGCCGGUCGGAAGGAGCGCACGCCAGAGUGAUGUUCUGGCGCAGGCAUUUAGUGCCCGCGUGCAGGUAGGUCGCCGAUUCUGGC [Arlaaa],341,310,423,234,270
CCGCUACCCUCAGGAUAUUAAAUAUUAGUGAUGUUAAUAAACCGAUGGCGAAAGCCAUCGGUAUGUUAAGAAGGGAGGGUAGCGG,138,847,974,949,965
CCGCUACCCUCAGGAUAUUAAGUAUUAGUGAUGUUAGUAAACCGAUGGCGAAAGCCAUCGGUAUGUUGAGAAGGGAGGGUAGCGG [whbob_SS_FMNB__2th198],356,946,1170,847,923
CCUAUCUCAUACGAUACCAGUCAAAUAAAUUAUAACGAGUGAUGUUCGAAAUGCCAUCACGACCCUUGGCAGCGUAUGGGAUAGG [Ex Theophylline B K4 1],304,123,212,186,125

Sequence,apparent KD of K4 kissing-loop reporter (input ligand: FMN 200 uM) [nM],apparent KD of K4 kissing-loop reporter (input ligand: arginine 13.2 mM) [nM],apparent KD of K4 kissing-loop reporter (input ligand: none) [nM],apparent KD of K4 kissing-loop reporter [1] [nM],apparent KD of K4 kissing-loop reporter [2] [nM]
CCUAUCUCAUACGAUACCAGUCUAUUAAAACGAGUGAUGUUCGAAUAUUUGCCAUAUAAUGACCCUUGGCAGCGUAUGGGAUAGG [Ex Theophylline B K4 9],221,229,244,230,190
CCUAUCUCGUACGAUACCAGACUAUGAUCUUUGAUCAAUGCCAUCACCGAGUGAUGUUCGGUCCCUUGGCAGCGUAUGAGAUGGG [#12 K4 Theophylline B Exclusion],179,143,170,202,155
CCUAUCUCUUACGAUACCAGUCAAUGAUAUUUUAUCAAUGCCCUCACCGAGUGAUGUUCGGACCCUUGGCAGCGUCUGGGAUAGG [pvppimullin],223,170,212,190,191
CCUCACGUAGGACUAGUGAUGUUAGACUACCGAGGACCGGUACGGCCGCCACUCGUCGUACAAGAUAACCUUCCGCCAGUAUACA,113,91.8,99.9,83.6,108
CCUUCUCUUGAUAGUGAUGUUGUCAAGGGCAAGGAUAUCAUCUUAAUGAGAAGGUGUCCUUGAUAACAUGGAGGUCUGAAACAGA [Omei KL FMN A Exc C v7],123,305,301,380,375
CGAGCGGAGUGAUGUUCCGUGCCAGCAGAUACCAGAUUGAAAGAGAUCCCUUGGCAGCUGCGUCACACCCUUACGUGAUAGGACC [theeternabot_sameState_KL_Theo_A_32],244,178,239,275,165
CGAGUCCUGAGGAGUGAUGUUCCUCGGCCACGAGGACCGGUACGGCCGCCACUCGUUACUCGGGCUUAGCAGCAAGCACUAAGCU [Acesote],348,317,334,302,127
CGAGUCCUGAGGAGUGAUGUUCCUCGGCCACGAGGACCGGUACGGCCGCCACUCGUUACUCGGGCUUAGUAGCUAGCACUAAGCU [Quedmaon],265,171,186,232,101
CGAGUGAUGUUCGUUCGUUUAUUUCGGUGACAGGAUAUGCGGAAACGCAGAAGGGUCACCUUUGGGUUACCGGAAUUAACGUUAU [Ex FMN A 30],640,455,561,414,584
CGAGUGAUGUUCGUUUUUUACUCUUUUUGACAGGAUAUGCGGAAACGCAGAAGGGUCACCUUUGAGUUAAAAGGAGUUAUUUUUU [Ex FMN A 19],345,269,318,305,317
CGCAGUGAUGUUGCGAAUAUAAUAACGGAAGGAGCGCGUGAAAACGCAGGUAGGUCGCCGUUUGGUAUGAUGGAAACAUCGUACC [Arginine A K4 11],135,138,132,106,123
CGCAGUGAUGUUGCGAAUAUAAUUACGGAAGGAGCGCGUGAAAACGCAGGUAGGUCGCCGUUUGGUAUGAUGGAAACAUCGUACC [Arginine A K4 10],140,125,147,115,117
CGCAGUGAUGUUGCUAUUAUUCUUGGUUAACGAGGACCGGUACGGCCGCCACUCGAUGUCUGUCUAGUCCAGUGUUUUUUUGAGU [whbob_EX_Tryp_A_t8],351,467,506,579,228
CGCAGUGAUGUUGCUAUUAUUCUUGGUUAACGAGGACCGGUACGGCCGCCACUCGAUUUCUAUCUAAUCCAGUGUUUUUUUGAGU [JR_ExcTryptoA_Sub003],301,377,396,458,204
CGCGCGGGUUUGAGAGGGUUUGCGCGAAGUGAGGAUAUUUAGGGAGAAAGAAGGCACUAUAAAAUAUAGUGAUGUUAUAUAAGGG [SSFMNA.I],627,117,251,139,269
CGGAUGUAGUGAUGUUAUAUUAGAUGUAGACGAGGACCGGUACGGCCGCCACUCGUAACGGCUGCUAGCGCGUUGCGAGGUGUGC [ExTryptoA.Cl],642,611,721,570,510
CGGCGGAGUGAUGUUCCACCUACUGCGGAUACCAGCUUUGCCAAAGGCCCUUGGCAGCCGCACGGCUCAGUGAUGUUGGGUCGCG [Same State Theophylline A G11],225,179,244,223,199
CGGUACGUCGCAGGAUAUGUAAAUGUAAGUGAUGUUUACAUACCAUGCUGGCGAAAGCCAGCAUGGACAGAAGGGCGACGUACCG,111,354,470,328,506
CGUGAGUGCCGUCAGUCAUCGGUCCAUGCACGAGGACCGGUACGGCCGCCACUCGAGCGUGGCAGUGAUGUUGCCAGCGCACUAA [KL-XTryp-A12],117,98.7,103,112,89.4
CGUGGUGCUCGCCAGCUGUGCGAGCGGUGGGAGGAUAUGUCGCGAGACAGAAGGCCCAGUGAUGUUGGGCAGGCUCGUAGAUCAA [Orbemaed],152,118,121,133,116
CGUUCUUCUGUCGAUACCAGCUUCAGUUGGCGGCCAGUGAUGUUGGUAUCGCCGAUGCCAAGCCCUUGGCAGCGACAUGAGACCC [Onrire],171,180,182,130,168
CGUUGUGAUGCUUGUGCUCAUACCGGAGAUACCAGUACCAUCACUUACCCUUGGCAGCUCAGUAAAGACAAGUGAUGUUUGUCAC [theeternabot_sameState_KL_Theo_A_38],684,528,805,560,502
